Binding signal (fold lower cross-linking than ABAL-D17.4) data for one sequence are collected here from patent US20170059576.

This data set deals with Immunoglobulin E (IgE), P01854-1. As to conditions: 5'-hexylamine coupled Sulfo-SBED (phenyl azide, biotin); 365 nm photo-crosslinking, Western blot; marginal at highest protein concentration only.
Immunoglobulin E (IgE), P01854-1, sequence (P01854 other isoform, or with tags, fused parts or gaps): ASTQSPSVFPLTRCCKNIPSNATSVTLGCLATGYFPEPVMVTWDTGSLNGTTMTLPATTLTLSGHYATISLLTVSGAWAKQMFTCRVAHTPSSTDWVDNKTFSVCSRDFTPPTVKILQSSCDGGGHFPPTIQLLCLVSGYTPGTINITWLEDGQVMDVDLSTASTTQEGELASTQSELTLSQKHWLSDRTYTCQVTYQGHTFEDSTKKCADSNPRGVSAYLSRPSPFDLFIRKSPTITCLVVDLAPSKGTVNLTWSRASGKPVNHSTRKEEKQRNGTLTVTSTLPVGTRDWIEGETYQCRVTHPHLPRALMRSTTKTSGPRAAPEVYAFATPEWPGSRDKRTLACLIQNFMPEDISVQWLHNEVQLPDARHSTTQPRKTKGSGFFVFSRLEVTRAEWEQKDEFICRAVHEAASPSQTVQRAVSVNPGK

Consider “CCAGCTGGCTCACCGTTCGCGCTAGGGCTTTCCGTCG [ABAL-D17.4sc]”, for which the binding signal (fold lower cross-linking than ABAL-D17.4) is 17.
